Results: PMC10827105

How the values were obtained:
[1] = target: CifRTR (CifR C99T/C181R) (Pseudomonas aeruginosa); assay: SEC
[2] = target: CifRTR (CifR C99T/C181R) (Pseudomonas aeruginosa); assay: SEC + AUC
CifRTR [3] = target: T1, CifRTR (Pseudomonas aeruginosa, UniProt A0A0H2ZCS5 1-196, C99T;C181R); assay: EMSA
CifRTR-C107S = CifRTR-C107S (Pseudomonas aeruginosa, UniProt A0A0H2ZCS5 1-196, C99T;C107S;C181R); assay: X-ray crystallography
CifRTR [4] = target: T1, CifRTR; assay: SEC
CifRTR [5] = target: T1, CifRTR; assay: EMSA; remark: listed apart in the source

Molecule: CifRTR (CifR C99T/C181R) (natural protein)
- stoichiometry N [1]: 2
- stoichiometry N [2]: 2

B1: cifR-prox dsDNA36 (dsDNA)
DNA 1: CCTCCATTATTTGTATCGATCACTATAAATTTACTT
DNA 2: AAGTAAATTTATAGTGATCGATACAAATAATGGAGG
- binding result (CifRTR [3]): binds

B2: cifR-prox dsDNA26L (dsDNA)
DNA 1: TTATTTGTATCGATCACTATAAATTT
DNA 2: AAATTTATAGTGATCGATACAAATAA
- binding result (CifRTR-C107S): binds
- binding result (CifRTR [4]): binds

B3: cifR-prox dsDNA23 (dsDNA)
DNA 1: TATTTGTATCGATCACTATAAAT
DNA 2: ATTTATAGTGATCGATACAAATA
- binding result (CifRTR [5]): binds
